The data set deals with T1, His-OsNAC2 (Oryza sativa, UniProt Q7XUV6 1-343).
T1 sequence: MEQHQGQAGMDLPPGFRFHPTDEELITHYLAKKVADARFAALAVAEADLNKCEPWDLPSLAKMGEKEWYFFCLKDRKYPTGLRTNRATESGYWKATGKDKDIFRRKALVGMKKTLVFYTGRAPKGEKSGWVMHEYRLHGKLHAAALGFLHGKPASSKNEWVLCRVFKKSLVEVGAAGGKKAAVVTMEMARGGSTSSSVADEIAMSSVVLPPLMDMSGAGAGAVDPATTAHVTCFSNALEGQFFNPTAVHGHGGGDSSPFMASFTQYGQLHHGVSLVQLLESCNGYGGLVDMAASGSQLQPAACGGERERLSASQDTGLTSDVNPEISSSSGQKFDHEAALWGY
In words: EMSA. Background: In EMSA bound probe runs differently from free probe, usually more slowly.

B1: probe-OsNAC2-59 (MITE in OsSCE1a promoter) (dsDNA)
DNA 1: TCCTTTGAGTCTATCTCTCTCATCCAATTCTTGTGTTTTTCCTGTGGTTCAATCAAACG
DNA 2: CGTTTGATTGAACCACAGGAAAAACACAAGAATTGGATGAGAGAGATAGACTCAAAGGA
As for B1, the binding result is on record as “binds”.

These data come from paper PMC11772321.
